Values of other authors, collected in paper PMC7851832.

Biological target: FGFR2 (Homo sapiens) (UniProt P21802)
Sequence (P21802 22-821): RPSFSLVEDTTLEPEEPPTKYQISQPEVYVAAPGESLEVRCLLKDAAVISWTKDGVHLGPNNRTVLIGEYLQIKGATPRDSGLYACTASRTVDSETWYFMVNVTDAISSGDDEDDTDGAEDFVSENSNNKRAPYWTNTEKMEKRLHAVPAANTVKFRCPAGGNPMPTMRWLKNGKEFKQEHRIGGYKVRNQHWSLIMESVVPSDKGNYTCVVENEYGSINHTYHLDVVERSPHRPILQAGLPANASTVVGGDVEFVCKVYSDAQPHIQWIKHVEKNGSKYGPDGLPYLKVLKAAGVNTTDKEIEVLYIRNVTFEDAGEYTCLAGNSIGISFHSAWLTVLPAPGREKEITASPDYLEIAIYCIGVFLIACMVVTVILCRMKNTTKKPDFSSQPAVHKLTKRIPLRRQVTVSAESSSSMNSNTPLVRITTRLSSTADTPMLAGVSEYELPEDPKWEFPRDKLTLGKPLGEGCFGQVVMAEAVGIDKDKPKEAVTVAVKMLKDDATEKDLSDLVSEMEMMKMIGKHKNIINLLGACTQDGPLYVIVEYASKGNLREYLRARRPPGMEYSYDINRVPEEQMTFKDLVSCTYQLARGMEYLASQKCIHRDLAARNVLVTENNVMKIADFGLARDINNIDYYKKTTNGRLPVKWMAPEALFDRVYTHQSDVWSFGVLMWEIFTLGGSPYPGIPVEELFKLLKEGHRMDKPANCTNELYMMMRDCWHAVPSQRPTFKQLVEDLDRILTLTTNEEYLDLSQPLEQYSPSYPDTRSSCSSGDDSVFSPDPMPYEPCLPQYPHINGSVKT

Sequence of FGF1 (P05230 16-155): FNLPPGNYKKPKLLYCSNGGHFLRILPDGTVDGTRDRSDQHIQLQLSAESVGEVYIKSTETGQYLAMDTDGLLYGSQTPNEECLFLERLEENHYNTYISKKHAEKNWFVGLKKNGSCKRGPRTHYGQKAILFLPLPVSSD

Kd: 0.3 µM
Substance: FGF1 (from UniProt P05230)
